{"source": "paper PMC11574045", "about": "“A cofactor-induced repressive type of transcription factor condensation can be induced by synthetic peptides to suppress tumorigenesis” (The EMBO Journal, 2024)", "molecules": {"B1": {"name": "CRY1 (protein, UniProt Q16526 1-586, looked up)", "Cryptochrome-1": "MGVNAVHWFRKGLRLHDNPALKECIQGADTIRCVYILDPWFAGSSNVGINRWRFLLQCLEDLDANLRKLNSRLFVIRGQPADVFPRLFKEWNITKLSIEYDSEPFGKERDAAIKKLATEAGVEVIVRISHTLYDLDKIIELNGGQPPLTYKRFQTLISKMEPLEIPVETITSEVIEKCTTPLSDDHDEKYGVPSLEELGFDTDGLSSAVWPGGETEALTRLERHLERKAWVANFERPRMNANSLLASPTGLSPYLRFGCLSCRLFYFKLTDLYKKVKKNSSPPLSLYGQLLWREFFYTAATNNPRFDKMEGNPICVQIPWDKNPEALAKWAEGRTGFPWIDAIMTQLRQEGWIHHLARHAVACFLTRGDLWISWEEGMKVFEELLLDADWSINAGSWMWLSCSSFFQQFFHCYCPVGFGRRTDPNGDYIRRYLPVLRGFPAKYIYDPWNAPEGIQKVAKCLIGVNYPKPMVNHAEASRLNIERMKQIYQQLSRYRGLGLLASVPSNPNGNGGFMGYSAENIPGCSSSGSCSQGSGILHYAHGDSQQTHLLKQGRSSMGTGLSGGKRPSQEEDTQSIGPKVQRQSTN"}, "B2": {"name": "CRSP6 (protein, UniProt Q9NVC6 1-651, looked up)", "Mediator of RNA polymerase II …": "MSGVRAVRISIESACEKQVHEVGLDGTETYLPPLSMSQNLARLAQRIDFSQGSGSEEEEAAGTEGDAQEWPGAGSSADQDDEEGVVKFQPSLWPWDSVRNNLRSALTEMCVLYDVLSIVRDKKFMTLDPVSQDALPPKQNPQTLQLISKKKSLAGAAQILLKGAERLTKSVTENQENKLQRDFNSELLRLRQHWKLRKVGDKILGDLSYRSAGSLFPHHGTFEVIKNTDLDLDKKIPEDYCPLDVQIPSDLEGSAYIKVSIQKQAPDIGDLGTVNLFKRPLPKSKPGSPHWQTKLEAAQNVLLCKEIFAQLSREAVQIKSQVPHIVVKNQIISQPFPSLQLSISLCHSSNDKKSQKFATEKQCPEDHLYVLEHNLHLLIREFHKQTLSSIMMPHPASAPFGHKRMRLSGPQAFDKNEINSLQSSEGLLEKIIKQAKHIFLRSRAAATIDSLASRIEDPQIQAHWSNINDVYESSVKVLITSQGYEQICKSIQLQLNIGVEQIRVVHRDGRVITLSYQEQELQDFLLSQMSQHQVHAVQQLAKVMGWQVLSFSNHVGLGPIESIGNASAITVASPSGDYAISVRNGPESGSKIMVQFPRNQCKDLPKSDVLQDNKWSHLRGPFKEVQWNKMEGRNFVYKMELLMSALSPCLL"}, "B3": {"name": "CRSP9 (protein, UniProt O43513 1-233, looked up)", "Mediator of RNA polymerase II …": "MGEPQQVSALPPPPMQYIKEYTDENIQEGLAPKPPPPIKDSYMMFGNQFQCDDLIIRPLESQGIERLHPMQFDHKKELRKLNMSILINFLDLLDILIRSPGSIKREEKLEDLKLLFVHVHHLINEYRPHQARETLRVMMEVQKRQRLETAERFQKHLERVIEMIQNCLASLPDDLPHSEAGMRVKTEPMDADDSNNCTGQNEHQRENSGHRRDQIIEKDAALCVLIDEMNERP"}}, "test_system": "HEK293FT cells transfected with TF library", "assay": "Screening of TF condensates based on fluorescent puncta", "assay_type": "cell-based", "conditions": "Figure 1B numerical data; TF library screen, one value per transcriptional factor", "summary_of_the_method": "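Each TF construct was introduced into HEK293FT cells using PEI at 4.8 μg/ml; glucose deprivation versus normal medium lasted 12 h. Automated confocal-style imaging of tagged TF staining, 50 fields per well, gave the puncta data.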"}
{"molecule": "B1", "values": [{"measurement": "Z score of condensed fraction", "result": -0.5227}]}
{"molecule": "B2", "values": [{"measurement": "Z score of condensed fraction", "result": -0.7101}]}
{"molecule": "B3", "values": [{"measurement": "Z score of condensed fraction", "result": -0.379}]}
